How the values were obtained:
[1] = Plasma adiponectin level after intravenous adiponectin injection; format: in vivo, mice; conditions: 30 μg recombinant murine adiponectin per 10 g body weight, intravenously
From the text: (§1) Mouse full-length adiponectin was generated as described in the following documents (Nature Med. 8, 1288-1295 (2002); Nature Med. 7, 941-946 (2001); Nature 423, 762-769 (2003)).

AMPK = AMPK phosphorylation in vivo (skeletal muscle and liver); set-up: species or system mice; conditions: 30 μg per 10 g body weight, 10 min
Experimental: as §1
Real-time PCR was carried out according to the method described in the following documents (Nature Med. 13, 332-339 2007); Nature 423, 762-769 (2003); J. Biol. Chem. 281, 8748-8755 (2006)). Total RNA was prepared from cells or tissues by using Trizol (Invitrogen) according to the manufacturer's instructions. Quantification of mRNA was conducted using a real-time PCR method (Nature 423, 762-769 (2003)) with slight modifications. The procedures used for immunoblotting are described in the following documents (Nature Med. 7, 941-946 (2001); J. Biol. Chem. 281, 26602-26614 (2006); J. Biol. Chem. 281, 8748-8755 (2006)). The livers or muscles were freeze-clamped in liquid nitrogen in situ (Nature Med. 7, 941-946 (2001); J. Biol. Chem. 281, 26602-26614 (2006); J. Biol. Chem. 281, 8748-8755 (2006)).

PGC-1α = PGC-1α acetylation in C2C12 myocytes; format: cell-based, mouse; conditions: treatment for 2 hr
Experimental: (§2) The mouse C2C12 myoblasts were grown in 90% Dulbecco's modified high glucose Eagle's medium containing 10% (v/v) fetal bovine serum. When the cells reached 80% confluent, the myoblasts were induced to differentiate into myocytes by replacing the medium with a low serum differentiation medium (98% Dulbecco's modified high glucose Eagle's medium, 2.5% (v/v) horse serum). The medium was changed daily. The C2C12 cells were transfected by using Pofectamine 2000 (Invitrogen) and following the manufacturer's instructions.

C2C12 myocytes [2] = assay: Calcium imaging in C2C12 myocytes (fura-2); format: cell-based, mouse
Experimental: C212 myocytes cultured on glass base dishes (IWAKI) were treated with 2.5 μM fura-2/AM for 30 min. Fluorescence was measured with an Aquacosmos Calcium Imaging system (Hamamatsu Photonics). Ligands were delivered through the superfusing Ringer's solution (140 mM NaCl, 5.6 mM KCl, 5 mM HEPES, 2.0 mM sodium pyruvate, 1.25 mM KH2PO4, 2.0 mM CaCl2, 2.0 mM MgCl2, 9.4 mM D-glucose (pH 7.4)). For the calcium chelating experiment, EGTA solution (140 mM NaCl, 5.6 mM KCl, 5 mM HEPES, 2.0 mM sodium pyruvate, 1.25 mM KH2PO4, 2.0 mM MgCl2, 5.0 mM EGTA-2Na, 9.4 mM D-glucose (pH 7.4) was used for the bath solution. Fura-2 fluorescence ratios were calibrated to calcium ion signals.

AdipoR1 = molecular target: T1, AdipoR1 (Mus musculus, UniProt Q91VH1); assay: Electrophysiological recording in Xenopus oocytes expressing AdipoR1; format: cell-based
T1 construct: expressed in transfected cells; host or cells: Xenopus oocytes (stage V to VII), cRNA synthesized from linearized modified pSPUTK
T1 sequence (Q91VH1 1-375): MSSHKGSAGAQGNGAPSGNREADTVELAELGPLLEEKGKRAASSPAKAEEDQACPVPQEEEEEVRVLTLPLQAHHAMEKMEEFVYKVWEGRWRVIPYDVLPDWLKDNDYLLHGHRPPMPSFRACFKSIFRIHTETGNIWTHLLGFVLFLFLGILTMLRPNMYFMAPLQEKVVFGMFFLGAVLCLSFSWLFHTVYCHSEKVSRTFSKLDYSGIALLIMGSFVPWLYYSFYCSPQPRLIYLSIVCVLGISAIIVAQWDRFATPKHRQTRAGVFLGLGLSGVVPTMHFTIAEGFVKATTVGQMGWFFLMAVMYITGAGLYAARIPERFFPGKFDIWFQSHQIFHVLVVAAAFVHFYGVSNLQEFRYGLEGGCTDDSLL
Experimental: Stage V to VII oocytes were treated with 2 mg/ml of collagenase S-1 (Nitta gelatin) in calcium ion-free saline solution (82.5 mM NaCl, 2 mM KCl, 1 mM MgCl2, and 5 mM HEPES, pH 7.5) for 1 to 2 hr at room temperature. The resulting oocytes were then microinjected with 50 ng of cRNA for mAdipoR1. The cRNA was synthesized from linearized modified pSPUTK. The injected oocytes were incubated for 3 days at 18° C. in a bath solution (88 mM NaCl, 1 mM KCl, 0.3 mM Ca(NO3)2, 0.4 mM CaCl2, 0.8 mM MgSO4, 2.4 mM […], 15 mM HEPES, pH 7.6) supplemented with 10 μg/ml of penicillin and streptomycin.
Whole cell currents were recorded with a two-electrode voltage clamp technique. Intracellular glass electrodes were filled with 3M KCl. Signals were amplified with an OC-725C amplifier (Warner Instruments), low-pass filtered at 50 Hz, and digitized at 1 kHz. A control bath solution contained 115 mM NaCl, 2.5 mM KCl, 1.8 mM CaCl2, and 10 mM HEPES. It was titrated to pH 7.2 with NaOH. A calcium ion free solution containing 1.8 mM BaCl2 instead of CaCl2 was used. The inward current was monitored at a holding potential of −80 mV. Calcium ion activated Cl^− current was monitored by applying 500-mscc depolarizing pulses of +100 mV and +50 mV from the holding potential of −80 mV. Adiponectin was supplied to the superfusing bath solution via a silicon tube connected to computer-driven solenoid valves. Data acquisition and analysis were carried out using Digidata 1322A and pCLAMP software.

CaMKI = CaMKI phosphorylation in skeletal muscle in vivo; set-up: species or system mice; conditions: 30 μg per 10 g body weight, 5 min
From the text: as §1

C2C12 myocytes [3] = assay: Patch clamp test, whole-cell current in C2C12 myocytes; format: cell-based, mouse; conditions: adiponectin 30 μg/ml 30 sec, holding potential -60 mV
Experimental: Whole-cell currents were amplified with a patch-clamp amplifier (CEZ-2400; Nihon Kohden) and were digitized with a PowerLab digitizer (AD Instruments). Ringer's solution was used for the extracellular solution. The electrode solution contained 140 mM KCl, 10 mM HEPES, 5 mM EGTA-2K, and 10 mM D-glucose (pH 7.4). The data were low-pass filtered at 2 kHz and were sampled at 20 kHz. Ligands dissolved in Ringer's solution were applied at least twice with a self-made pressure-ejection system and via a two-barreled glass capillary.

HDAC5 = HDAC5 phosphorylation in C2C12 myocytes; format: cell-based, mouse; conditions: adiponectin 30 μg/ml, 0-20 min
Experimental: as §2

B1: adiponectin (protein, UniProt Q60994 1-247, looked up)
chain: MLLLQALLFLLILPSHAEDDVTTTEELAPALVPPPKGTCAGWMAGIPGHPGHNGTPGRDGRDGTPGEKGEKGDAGLLGPKGETGDVGMTGAEGPRGFPGTPGRKGEPGEAAYVYRSAFSVGLETRVTVPNVPIRFTKIFYNQQNHYDGSTGKFYCNIPGLYYFSYHITVYMKDVKVSLFKKDKAVLFTYDQYQEKNVDQASGSVLLHLEVGDQVWLQVYGDGDHNGLYADNVNDSTFTGFLLYHDTN
modifications: full-length
notes: adipokine, internal ligand of adiponectin receptor 1; recombinant murine full-length adiponectin
[1]
  plasma adiponectin levels: approximately 30 μg/ml
AMPK; both genotypes
  phosphorylation of AMPK in liver: increased the phosphorylation of AMPK in the liver of both genotypes
AMPK; control littermates
  phosphorylation of AMPK in skeletal muscle: increased the phosphorylation of AMPK in the muscle of control littermates
PGC-1α
  PGC-1α acetylation: decreased PGC-1α acetylation
C2C12 myocytes [2]
  dose dependence of calcium response: dose-dependent responses
C2C12 myocytes [2]; adiponectin 30 μg/ml
  intracellular calcium ion concentration (fura-2): increased an intracellular calcium ion concentration
AdipoR1; control oocytes without AdipoR1 cRNA
  calcium-ion activated Cl- current response: not observed
AdipoR1; oocytes expressing AdipoR1, adiponectin 30 μg/ml, holding potential -80 mV
  inward current response: induced inward current responses
AdipoR1; oocytes injected with AdipoR1 cRNA, adiponectin 30 μg/ml
  intracellular calcium levels by calcium-ion activated Cl- current: increase in intracellular calcium levels
CaMKI
  phosphorylation of CaMKI in skeletal muscle in vivo: significantly increased
C2C12 myocytes [3]
  whole-cell inward current response: Inward current responses to adiponectin were observed
HDAC5
  HDAC5 phosphorylation: increased HDAC5 phosphorylation

Source: patent US20130274185A1, “Pharmaceutical for Pseudo-Exercise Therapy” (THE UNIVERSITY OF TOKYO, priority 2010, published 2013)
